# In publication doi:10.1101/2022.05.21.492554 (2022):
# B1: Omi-32 Fab (Fab, V domains shown)
# VH: EVQLVESGGGVVQPGRSLRLSCAASGFTFSNYGMHWVRQAPGKGLEWVAVYWYDGGNKFYADSVKGRFTISRDNSKNTLYLQMNSLRVEDTAVYYCARDTAPPDYWGQGTLVTVSS
# VL: AIRMTQSPGTLSLSPGERATLSCRASQSISSSFLAWYQQKPGQAPRLLIYGASSRATGIPDRFSGSGSGTDFTLTISRLEPEDFAVYYCQQYGTSPRLTFGGGTKVDIK
# Assays:
# [1] = target: T1, BA.4/5 RBD with BAP-His tag, biotinylated (SARS-CoV-2 Omicron BA.4/5, L452R | F486V | T478K | E484A | N501Y, biotin (on the BAP tag, by co-expressed ER-localized biotin ligase BirA)); assay: SPR; conditions: both partners purified
# [2] = target: T1, BA.4/5 RBD with BAP-His tag, …; assay: cell-based or functional assay
binder,measurement,setting,value
B1,fold increase in on-rate against BA.2 RBD,[1],5 fold
same,"pseudoviral neutralization of BA.4/5, fold enhancement compared to BA.2",[2],77 fold
